{"source": "the supplement of paper PMC12042874", "note": "± gives the uncertainty stated by the source.", "data": [{"assay": "amyloid nucleation score (Sup35N fusion, yeast selection) (log enrichment); library NNK2; higher = more nucleation; inactive = no reads after selection", "summary_of_the_method": "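Random libraries were run with three technical output replicates. In each, psi-negative yeast expressing Sup35N fused to peptides of 20 random codons were induced 24 hours with 100 μM copper sulfate and grown 7 days at 30°C on medium lacking adenine and uracil, and input and output plasmid inserts were Illumina-sequenced. The nucleation score is the DiMSum log enrichment of output over input reads, centred on the mode score of non-aggregating sequences, and sequences under 100 input reads were excluded.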", "values": [{"substance": "WMKFTWWRHEYYVVS", "amyloid nucleation score": "-0.195 ± 0.79"}, {"substance": "WMSFTHLLNTIAVMSYLTVL", "amyloid nucleation score": "-0.249 ± 0.25"}, {"substance": "WNFFLGMAIMGLRRSCL", "amyloid nucleation score": "4.1 ± 0.068"}, {"substance": "WNGGQWGAWPLCSNVCAMRS", "amyloid nucleation score": "7.7 ± 0.062"}, {"substance": "WNGQDGQGLVGLKRP", "amyloid nucleation score": "0.344 ± 0.23"}, {"substance": "WNIWFTVCYCKHLSKSKGSD", "amyloid nucleation score": "8.667 ± 0.033"}, {"substance": "WNLRMYLNMGYMVLFNIQF", "amyloid nucleation score": "3.64 ± 0.099"}, {"substance": "WNLYSLSN", "amyloid nucleation score": "inactive"}, {"substance": "WPGLCYCGMPVRMNWLLVTP", "amyloid nucleation score": "-0.661 ± 1.1"}, {"substance": "WPIMMYGKFVFDRHIHCGAL", "amyloid nucleation score": "0.141 ± 0.41"}, {"substance": "WQGEPHPIHFMLSFVLMGW", "amyloid nucleation score": "0.957 ± 0.21"}, {"substance": "WQNETRMACRWFRRMLSFCI", "amyloid nucleation score": "1.42 ± 0.4"}, {"substance": "WQTEFIYSQVSTVGYKRLEG", "amyloid nucleation score": "2.38 ± 0.089"}, {"substance": "WRLCVWPRCGTAKLS", "amyloid nucleation score": "0.24 ± 0.32"}, {"substance": "WRSDLAVGFYKEMHSRRING", "amyloid nucleation score": "-0.992 ± 0.36"}, {"substance": "WRYDSWFKRKHCMLLYICQG", "amyloid nucleation score": "0.003 ± 0.43"}, {"substance": "WRYSRKMDRPFYRAMCYVNI", "amyloid nucleation score": "1.68 ± 0.1"}, {"substance": "WSDLFRRTMCGVW", "amyloid nucleation score": "0.624 ± 0.66"}, {"substance": "WSGDFLRYHCHAGDRCMMTM", "amyloid nucleation score": "-0.78 ± 0.63"}, {"substance": "WSLSYYISVDEDYGSRGVTM", "amyloid nucleation score": "-1.6 ± 1"}, {"substance": "WSMVQLPFSFIYPRGYLNMG", "amyloid nucleation score": "-0.615 ± 0.64"}, {"substance": "WSRKECG", "amyloid nucleation score": "0.408 ± 0.4"}, {"substance": "WSRSNLCTFSFLGNIISPDR", "amyloid nucleation score": "4.02 ± 0.073"}, {"substance": "WSWRGS", "amyloid nucleation score": "0.629 ± 0.52"}, {"substance": "WTFLIIIWYLDIVV", "amyloid nucleation score": "-1.76 ± 0.48"}, {"substance": "WTQGFYTFSDHAPLVIILLE", "amyloid nucleation score": "inactive"}, {"substance": "WTTLGGPVGREENGRRQAEG", "amyloid nucleation score": "1.17 ± 0.23"}, {"substance": "WTWGALDRRSGLFEVGGMYF", "amyloid nucleation score": "0.449 ± 0.47"}, {"substance": "WVDGICCPPRSG", "amyloid nucleation score": "0.292 ± 0.29"}, {"substance": "WVFRK", "amyloid nucleation score": "-0.11 ± 0.76"}, {"substance": "WVGSCKNVSFMQVIVWIVRL", "amyloid nucleation score": "-0.121 ± 1.1"}, {"substance": "WVLPSLKGCTAVSYIFVFLY", "amyloid nucleation score": "0.398 ± 0.27"}, {"substance": "WVNSKLGLKVSLIEAGVEVS", "amyloid nucleation score": "-0.116 ± 0.43"}, {"substance": "WVTGPSRPD", "amyloid nucleation score": "0.387 ± 0.8"}, {"substance": "WVVHLSSGIRNF", "amyloid nucleation score": "inactive"}, {"substance": "WVVNRTQGYGRLSSGDEEVP", "amyloid nucleation score": "1.35 ± 0.37"}, {"substance": "WVWGIGSFRRSFQCWWWFSN", "amyloid nucleation score": "-1.86 ± 0.73"}, {"substance": "WWFTAIGCSVGRLGSFNR", "amyloid nucleation score": "2.06 ± 0.16"}, {"substance": "WWVKTVLFKK", "amyloid nucleation score": "-0.947 ± 0.78"}, {"substance": "WWYPSGLDCFVVSFFRCHCV", "amyloid nucleation score": "-0.107 ± 1"}, {"substance": "WYEYCFCGVMLYRTGDCTRR", "amyloid nucleation score": "3.96 ± 0.086"}, {"substance": "WYYRLLWYVLSQGRMRGNVQ", "amyloid nucleation score": "-0.011 ± 0.41"}, {"substance": "YADPFSERYNFSALVFPFNI", "amyloid nucleation score": "inactive"}, {"substance": "YAIGDNAA", "amyloid nucleation score": "0.111 ± 0.32"}, {"substance": "YAVVFHVPLLV", "amyloid nucleation score": "5.11 ± 0.079"}, {"substance": "YCDCPVNICRRFPGHEHRGV", "amyloid nucleation score": "inactive"}, {"substance": "YCGFVFPAWGDLLTNGSPAA", "amyloid nucleation score": "0.092 ± 0.29"}, {"substance": "YCLVSIKMCYGYVVGSLVGW", "amyloid nucleation score": "2.63 ± 0.068"}, {"substance": "YDERTWGTECMCTSCSCADK", "amyloid nucleation score": "1.24 ± 0.28"}, {"substance": "YDLSASLVFGMFVNDLRRSR", "amyloid nucleation score": "5.68 ± 0.096"}, {"substance": "YDRIGCRASTSLSAYPLATA", "amyloid nucleation score": "2.58 ± 0.076"}, {"substance": "YDYFTLSTTGLWLAIYMWWC", "amyloid nucleation score": "0.287 ± 0.56"}, {"substance": "YEHLDIGNHKLGRCNRNFIA", "amyloid nucleation score": "-0.191 ± 1.1"}, {"substance": "YEMFHAILCY", "amyloid nucleation score": "-0.101 ± 0.8"}, {"substance": "YEPCLRSQNVSS", "amyloid nucleation score": "0.112 ± 0.79"}, {"substance": "YEVGHPYFDDNCRICSFWWK", "amyloid nucleation score": "1.82 ± 0.12"}, {"substance": "YEYVCVLAVACITGRFTLHW", "amyloid nucleation score": "-0.757 ± 0.36"}, {"substance": "YFCERWMLSCIGGLFVNFLY", "amyloid nucleation score": "0.168 ± 0.15"}, {"substance": "YFDGVIWLLTYRIFMANDYS", "amyloid nucleation score": "inactive"}, {"substance": "YFELKLKNARVGRFIDWRAT", "amyloid nucleation score": "1.77 ± 0.27"}, {"substance": "YFFITYVPSEAGYRREKWFG", "amyloid nucleation score": "7.34 ± 0.082"}, {"substance": "YFFKRIW", "amyloid nucleation score": "inactive"}, {"substance": "YFFRMSWPLGPMTSFRTLYL", "amyloid nucleation score": "-0.608 ± 0.4"}, {"substance": "YFGVLFPVMNWQLSWKNIYW", "amyloid nucleation score": "inactive"}, {"substance": "YFKDLKADVRVKMTKLEWPQ", "amyloid nucleation score": "2.67 ± 0.12"}, {"substance": "YFKTWAICHWFCNWRRLWMN", "amyloid nucleation score": "0.305 ± 1"}, {"substance": "YFLLVGAARIRRVKLLQ", "amyloid nucleation score": "-0.22 ± 0.62"}, {"substance": "YFLRYSS", "amyloid nucleation score": "inactive"}, {"substance": "YFLSGRVSEGSAITIRELSP", "amyloid nucleation score": "2.34 ± 0.091"}, {"substance": "YFNGERFTRFISMEE", "amyloid nucleation score": "-1.21 ± 1.1"}, {"substance": "YFNMSLTIPNI", "amyloid nucleation score": "0.566 ± 0.47"}, {"substance": "YFPPGDA", "amyloid nucleation score": "-0.47 ± 0.39"}, {"substance": "YFPVIRRDAAFYPFSAPYFN", "amyloid nucleation score": "-2.05 ± 0.77"}, {"substance": "YFRLLISCQNRLLVRKLRAA", "amyloid nucleation score": "-0.021 ± 0.79"}, {"substance": "YFSFTGPHLDVA", "amyloid nucleation score": "-0.937 ± 0.34"}, {"substance": "YFTSGNDDSVFDVYRSIWMV", "amyloid nucleation score": "2.91 ± 0.13"}, {"substance": "YFVSSC", "amyloid nucleation score": "-1.23 ± 0.35"}, {"substance": "YFVVCAHPESYSIINRFATV", "amyloid nucleation score": "6.311 ± 0.057"}, {"substance": "YFWSFYEVISFDCYHLIIFS", "amyloid nucleation score": "0.004 ± 0.18"}, {"substance": "YGASRNWQKNSLVASEYQVG", "amyloid nucleation score": "inactive"}, {"substance": "YGDMAVFVG", "amyloid nucleation score": "1.07 ± 0.41"}, {"substance": "YGFGHRGNMTAWLSMATKTF", "amyloid nucleation score": "-0.109 ± 0.76"}, {"substance": "YGIHTFSRYGVIWSCVSV", "amyloid nucleation score": "-0.64 ± 0.49"}, {"substance": "YGSWSPHEAGVYT", "amyloid nucleation score": "inactive"}, {"substance": "YGVVYAYYPDQVQWVGCNE", "amyloid nucleation score": "-0.24 ± 0.64"}, {"substance": "YGYIFISCENVRTQRSVIDG", "amyloid nucleation score": "inactive"}]}]}
